Assay results published in the nanobody polyreactivity screen of Harvey et al. (2022).

Test: yeast display, Sf9 membrane polyspecificity reagent, FACS + sequencing; frameworks hold sequencing errors
Method in brief: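 In a synthetic yeast display library (Saccharomyces cerevisiae BJ5465), nanobody expression was induced with galactose for 36–48 hours. FACS gates were set low and high (top ~1%) using anti-HA fluorescence for expression and streptavidin fluorescence for binding of the Sf9 membrane reagent. Each polyreactivity label is drawn from the gate of origin.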

With “QVQLVESGGGLVQAGGSLRLSCAASGFTFTYYAMGWYRQAPGTERELVAAISWRGTSTFYADSVKGRFTISRDNAKNTVYLQMNSLKPEDTAVYYCAAVGQWGYGYWGLGTQVTVSS” the “polyreactivity (PSR sort gate)” value was “high polyreactivity”.
For “QVQLVESGGGLVQAGGSLRLSCAASGRIFYPYAMGWYRQAPGKERELVGYSRGGSTNYADSVKGRFTISRDNAKNTVYLQMNSLKPEDTAVYYCARDVHRSGYLIFDYWGQGTQVTVSS”, the “polyreactivity (PSR sort gate)” value was “low polyreactivity”.
For “QVQLVESGGGLVQAGGSLRLSCAASGRIFEVYVMGWYRQAPGKERELVAAITTSGGSTYYADSVKGRFTISRDNAKNTVYLQMNSLKPEDTAVYYCNRYWHLAGSWGQGTQVTVSS”, the “polyreactivity (PSR sort gate)” value was “low polyreactivity”.
With “QVQLVESGGGLVQAGGSLRLSCAASGSIFPANAMGWYRQAPGKEWEFVAAINWSTGTTYYADSVKGRFTIARDNAKNTVYLQMNRLKPEETPVYYCNASDQAKYDYWGQGTQVTVSS” the “polyreactivity (PSR sort gate)” value was “low polyreactivity”.
With “QVQLVESGGGLVQAGGSLRLSCAASGYTFPLYAMGWYRQAPGKERELVATISSSGSRTYYADSVKGRFTISRDNAKNTVYLQMNSLKPEDTAVYYCAARYRAYVKLTSYDWGQGTQVTVSS” the “polyreactivity (PSR sort gate)” value was “high polyreactivity”.
With “QVQLVETGGGLVQAGGILRLSCAASGRIFVVYAMGWYRQAPGKERELVASNSRGGRTYYADSVKGRFTISRDNEKNTVYLQMNILKTEDTAVYYCAVVVFLKNRDLFDYWGQGTQVTVSS” the “polyreactivity (PSR sort gate)” value was “low polyreactivity”.
For “QVQLVESGGGLVQAGGSLRLSCAASGRTFDNYAMGWYRQAPGKERELVAAISSSGGRTYYADSVKGRFTISRDNAKNTVYLQMNSLKPEDTAVYYCAAVWPVYRTHPGMDYWGQGTQVTVSS”, the “polyreactivity (PSR sort gate)” value was “high polyreactivity”.
With “QVQLQECGGGLVQAGGSLRLSCAASGHIFDADIMGWYRQAPGKERELVASVTDGGSTNYADSVKGRFTISRDNAKNTVYLQMNSLKPEATAVFYCAAIVYPDILTYFDYDYDYFYWGQGTQVTVGS” the “polyreactivity (PSR sort gate)” value was “low polyreactivity”.
With “QVQLVESGGGLVQAGGSLRLSCAASGRTFSRYAMGWYRQAPGKERELVASMTRRGGRTYYADSVKGRFTISRDNAKNTVYFQMTSLKPEDTAGYYCNATSQIPWSSYYYWGQGTQVTVSS” the “polyreactivity (PSR sort gate)” value was “high polyreactivity”.
In the case of “QVQLVESGGGLVQAGGSLRLSCAASGFTFVHNAMGWYRQAHGKERELVAAISSSGGRTYYADSVKGRFTISRDNAKNTVYLQMNSLKPEDTAVYYCATVNRYGPSYGYWGQGTQVTVSS”, the “polyreactivity (PSR sort gate)” value is reported as “high polyreactivity”.
In the case of “QVQLVESGGGLVQARGSLRLSCAASGSIFNLYAMGWYRQAPGKEREFVASISYSGGSTYYADSVKGRFTISRDNAKNTVYLQINSLKPEDTAVYYCNARLEVYGQRYDYWGQGTQVTVSS”, the “polyreactivity (PSR sort gate)” value is reported as “low polyreactivity”.
For “QVQLVESGGVLVQAVASLRVSCAASGRILDYNTMGWYRPAPGKERELVAAISFSGGRTYYADSVKGRFTISRDNAKNTFYLQMNSLKPEDTAVYYCAATVGAASRYYYWGQGSQVTVSS”, the “polyreactivity (PSR sort gate)” value was “high polyreactivity”.
With “QVQLVESGGGLVQAGGSLRLSCAASGFTFDGYGMGWYRQAPGKERELVAVITSGGSTKYADSVKGRFTISRDNAKNTVYLQMNSLNPEDTAVYYCNVVGGRYLYSAYDYWGQGTQVTVSS” the “polyreactivity (PSR sort gate)” value was “low polyreactivity”.
For “QVQLVESGGGLVQAGGSRRLSCAASGSTVYTNAMGWSRQAPGKVRELVAAISGSGGSTYYADSVKGRFTISRDNPKNTVYLQMNSLKPEDTAVYYCAARSRNYDTRFDYWGQGTQVTVSS”, the “polyreactivity (PSR sort gate)” value was “low polyreactivity”.
With “QVQLVESGGGLVQAGGSLRLSCAASGRTFGANAMGWYRQAPGKERELVAAINSGDITNYADSVKGRFTISRDNAKNTVYLQMNSLKPEDTAVYYCAAGSYYTYSGYNYWGQGTQVTVSS” the “polyreactivity (PSR sort gate)” value was “low polyreactivity”.
For “QVQLVESGGGLVQAGGSLRLSCAASGFIFSRNAMGWYRQAPGKVRELGAAISRVGSTYYADSVKGRFTISRDNAKNTVYLQMYSLKREDTAVYYCARAWGNGGKSIFDYWGQGTQVTVSS”, the “polyreactivity (PSR sort gate)” value was “high polyreactivity”.
In the case of “QVQLVESCGGLVQAGGSLRISCAASGLTIRYYAMGWYRHAPWKERELVAAISWSGGSTYYADSVKGRFTISRDNAKNTVYLLMNILKPEDTAVYYCNTVGRSSSLSVFLIGYGYWGQGTQVNVSS”, the “polyreactivity (PSR sort gate)” value is reported as “high polyreactivity”.
In the case of “QVQLVDSGGGLVQAGGSLGLSCAASGRSFTFNAMGWYRQAPGKERELVAAISSRGDGTYYADSVKGRFTISRDNAKNNVYLQMNSLKPEDTAVYYCARYPDDYYDWGYDYWGQGTQVTVSS”, the “polyreactivity (PSR sort gate)” value is reported as “low polyreactivity”.
In the case of “QVQLVESGGGLVQAGGSLRLSCAASGSIFYIYAMGWYRQAPGKEREFVAAISWIGGSTYYADSVKGRFTISRDNAKNTVYLQMNSLKPEDTAVYYCAAETFTDYDYWGQGTQVTVSS”, the “polyreactivity (PSR sort gate)” value is reported as “high polyreactivity”.
For “QVQLVESGGGLVQAGGSLRLSCSASGSILVRYAMGWYRQSPGKERELVAAITSGGSTYADSVKGRFTISRDNAKNTVYLQMNSLKPEDTAVYYCARDYFNREAFDYWGQGTQVTVSS”, the “polyreactivity (PSR sort gate)” value was “low polyreactivity”.
With “QVQLVESGGGLVQAGGSLRLSCAASGSTFEGYAMGWYRQAPGKEMELVAAISSSGGTTNYADSVKGRFTISRDNAKNTVYLQMNSLKPEDTAVYYCAARKYAKYFYHYDYWGQGTQVTVSS” the “polyreactivity (PSR sort gate)” value was “low polyreactivity”.
With “QVQLVESGGGLVQAGGSLRLSCAASGSTLRPYAMGWYRQAPGKERELVAAISKSGASTYYADSVKGRFTISRDNAQNTVYLQMNSLKPEDTAVYYCNAGRGTGETLYGYDYWGQGTQVTVSS” the “polyreactivity (PSR sort gate)” value was “high polyreactivity”.
In the case of “QDQLVESGGGLVQAGGSLRLSCAASGRTSIWNAMGWYRQAPGKERELVASISWSGGSTYYADSVKGRFTISRDNAKNTVYLQMNSLKPEDTAVYYCAKTAYFLVFNEHLHKKRYDSWGQGTQVTVSS”, the “polyreactivity (PSR sort gate)” value is reported as “low polyreactivity”.
For “QVQLVESGGGLVQAGGSLRLSCAASGRTFVYYAMGWYRQAPGKERELVAAIRSGGSTNYADSVKGLFSISRDTAKNTVSLQMNSLKPEDTSVYYCNAVHYYYYKGDYWGQGTQVTVSS”, the “polyreactivity (PSR sort gate)” value was “high polyreactivity”.
With “QVQLVESGGGLVQAGGSLRLSCAASGSTFYYYAMGWYRQAPGKEREFVASISSRGTSTYYADSVKGRFTISRDNAKNTVYLQMNRLKPEDTAVYYCAARGWGPTRAYDYWGQGTQVTVSS” the “polyreactivity (PSR sort gate)” value was “high polyreactivity”.
With “QVQLVESGGGLVQAGGSLRLSCAASGFTLADNTMGWYRQAPGKERELVATISGSGSTYYADSVKGRFTISRDNAKNTVYLQMNSLKPEDTAVYYCAAVDTGTEKDLLRLGNGGYDYWGQGTQVTVSS” the “polyreactivity (PSR sort gate)” value was “low polyreactivity”.
With “QVQLVESGGGLVQAGGSLRLSCAASGFTLAGYDMGWYRQAPGKEREFVATISTYADSVKGRFTISRDNAKNTVYLQMNSQKPEDSAVYYCAAGRYLWHFTFDYWGQGTQVTVSS” the “polyreactivity (PSR sort gate)” value was “low polyreactivity”.
In the case of “QVQLVESGGGLVQAGGSLRLSCAASGSTFSYNAMGWYRQAPWKERELVAAISWNGDSTYADSVKGRFTISRDNAKNTVYLQMNSLKPEDTAVYYCAKDTIITPGRRKSPRYRHGYWGQGTQVTVSS”, the “polyreactivity (PSR sort gate)” value is reported as “low polyreactivity”.
For “QVQLVESGGGLVQAGGSLRLSCAASGSIFDVNAMGWYRQAPGKQRELVAAISDSGGSTYYADSVKGRFTISRDNAKNTVYLQMNSLKPEDTAVYYCNADWSWYNYYDFDYWGQGTQVTVSS”, the “polyreactivity (PSR sort gate)” value was “low polyreactivity”.
With “QVQLEESGGGLVQAGGSLRLSCAASGFIFAQNAMGWYRQAPGKERELVARIRVSGTRTYYADSVKGRFTISRDNAKNTVYLQMNSLKQEDTAVYYCAAVPYTYDFGYKRFYWGQGTQVTVSS” the “polyreactivity (PSR sort gate)” value was “high polyreactivity”.
For “QVQLEDSGGGLVQAGGSLRLSCAASGRTSVGYVMGWYRQAPGKERELVAAISASGGSTYYADSVKGRFTISRDNAKNTVYLQMNSLKPEDTAVYYCNAPVYVPYDYWGQGTQVTVSS”, the “polyreactivity (PSR sort gate)” value was “low polyreactivity”.
With “QVQLVESGGGLVQAGGSLRLSCAASGRIFTRYALGWYRHADGKVRELVATISRGGNTNYADSVKGRFTISRDNANNTVYLQMTSLKPEDTAVYYCAKYPVSRVGGYGYWGQGTQVTVSS” the “polyreactivity (PSR sort gate)” value was “low polyreactivity”.
For “QVQLVESGGGLVQAGGSLRLSCAASGRTFPYYAMGWYRQAPGKERELVAAIRGTAGNTYYADSVKGRFTISRDNAKNTVYLQMNSLKPEDTAVYYCAKGRPYWSPLTGYNYWGQGTQVTVSS”, the “polyreactivity (PSR sort gate)” value was “low polyreactivity”.
With “QVQIVESGGGLVQAGGSLPLSSAPSGSIFAPYAMGWYRQAPGKERELVAAINISGGTYYADSVKGRFTISRDNAKNTLYLQMNSLKPEDTAVYYCAARYLYGYYGFDYWGQGTQVTVSS” the “polyreactivity (PSR sort gate)” value was “high polyreactivity”.
With “QVQHVESGGGLVQAGGSLRLSCAASGITFSFYAMGWYRQAPGKERELVAAINGRGGRTYYADSVKGRFTISRDNAKNTVYLQMNSLKPEDTAVYYCAAVVWSTDYDYWGQGTQVTVSS” the “polyreactivity (PSR sort gate)” value was “low polyreactivity”.
For “QVQLVESGGGLVQAGGSLRLSCAASGITFSYNAMGWYRQAPGKERELVAAISSNSDSTYYADSVKGRFTISRDNAKNTVYLQMISLKPEDTAVYYCADDTPDAPDYSGFYYWGQGTQVTVSS”, the “polyreactivity (PSR sort gate)” value was “low polyreactivity”.
With “QVQLVESGGGLVQAGGSLRLSCAASGSTFVPYAMGWYRQAPGKERELVAAITTSGGNTYYADSVKGRFTISRDNAKNTVYLQMNSLKPEDTAVYYCAADTYRRFDYWGEGTQVTVSS” the “polyreactivity (PSR sort gate)” value was “low polyreactivity”.
For “QVQLVESGGGLVQAGGSLRLSCAASGFIFSSYAMGWYRQAPGKERELVAAISRSGGRTNYADSVKGRFTISRDNAKNTVYLQMNSLKPEDTAVYYCNADRKYWSLWGPAYDYWGHGTQVTVSS”, the “polyreactivity (PSR sort gate)” value was “high polyreactivity”.
With “QVQHEESGGGLVQAGGSLRLSCAASGSIFTPTPKGCYRQAPGKERELVAAISSSSDRTYYADSVKGRFTISRDNAKNTVYLEMNSLKPEDTAVYFCAAYAQKRYYWGQGTQVNVSS” the “polyreactivity (PSR sort gate)” value was “high polyreactivity”.
With “QDQLVESGGGLVQAGGSLRLSCAASRNIFYINTMGWYIQAPGKERALVAAIDASDGTTYYADSVKGRFTISRDNAKNTVYLQMNSVKPEDTAVYYCATRRGYDSVYYFYTLWYYYWGQGTQVTVSS” the “polyreactivity (PSR sort gate)” value was “low polyreactivity”.
With “QVQLVESGGGLVQAGGSLRVSCAASGISFGHYTMGWYRQATGKERELVATITTSGGRTYYADSVKGRFTISRDNAKNTVYLQMNSLKPEDTAVYYCATLSWYPFEYWGQGTQVTVSS” the “polyreactivity (PSR sort gate)” value was “high polyreactivity”.
In the case of “QVQLVESGGGLVQAGGSLRLSCAASGIIFYINAMGWYRQAPGKERELFADISSGDRTYYADSVKGRFTISRDNAKNTVYLQMNSLKPEDTAVYYCAAESYSGFVAGHTSLDDYWGQGTQVTVSS”, the “polyreactivity (PSR sort gate)” value is reported as “low polyreactivity”.
For “QVQLVESGGGLVQAGGSLRLSCAASGYTFSGYAMGWYRQAPGKERELVAAISKRGGSTYYADSVKGRFTISRDNAKNTVYLQMNSLKPEDTAVYYCAKRSGYRSHYGYWGQGTQVTVSS”, the “polyreactivity (PSR sort gate)” value was “high polyreactivity”.
